According to paper PMC3252381, “Trypanosoma cruzi trans-Sialidase in Complex with a Neutralizing Antibody: Structure/Function Studies towards the Rational Design of Inhibitors” (PLoS Pathogens, 2012):

B1: Fab fragment of mAb 13G9 (Fab, V domains shown)
VH: VKLQQSGVELVRPGTSVKMSCKAVGYTFTYDWIGWVKQRPGHGLEWIGDIYLGGGYINYNEKFKGKVILTADTSSSTAYMQLSSLTSEDSAIYYCARGHYDGSYFDYWGQGTTLTVSS
VL: DVLMTQTPTIMSASIGEEITLTCSASSSVSHMHWYQHKSGTSPKLLIYITSYLASGVPSRFSGSGSGTFYSLTISSVEAEDAADYYCHQWSTFPSTFGSGTKLEIK
B2: TS-neutralizing mouse monoclonal antibody 13G9 (IgG2aκ) (antibody, V domains shown)
VH: B1 VH
VL: B1 VL
notes: they are those of the Fab heavy chain in PDB 3OPZ (chain H; also I and J); rest of the mouse IgG2a heavy chain constant region beyond the Fab (hinge, CH2, CH3); the antibody was typed as IgG2aκ; they are those of the Fab light chain in PDB 3OPZ (chain L; also M and N); also called mAb 13G9; 13G9 mAb; source: 13G9 hybridoma culture supernatant; purified (Protein A-Sepharose, MonoQ) or used as …

Key:
[1] = biological target: recombinant Trypanosoma cruzi trans-sialidase (construct not stated for these experiments) (Trypanosoma cruzi) (UniProt Q26966)
[2] = biological target: T1, recombinant Trypanosoma cruzi trans-sialidase (construct not stated for these experiments) (Trypanosoma cruzi, strain  …, UniProt Q26966); assay: ITC; raw data not shown; done in the laboratory of Dr. Alan Cooper; conditions not stated; details: both partners purified
T1 construct: trans-sialidase, Trypanosoma cruzi, GenBank L26499; enzymatically active recombinant TS; also called T. cruzi TS; source: E. coli BL21, purified (Ni-charged Hi-Trap Chelating HP, MonoQ)

[3] = biological target: T1, recombinant Trypanosoma cruzi …; assay: cell-based or functional assay
[4] = biological target: T1, recombinant Trypanosoma cruzi …; assay: SPR; BIAcore 2000; purified mAb 13G9 amine-coupled to a CM5 chip; TS (1 nM to 10 µM) injected at 50 µl/min in HBS-EP (150 mM NaCl, 0.05% P20, 10 mM HEPES pH 7.4); KD calculated from the kinetic constants; apparent; details: both partners purified

| Binder | IC50 of inhibition of TS activity (remnant activity of 2 ng TS with sialyllactose and [14C]-lactose, increasing amounts of purified Fab) [1] [nM] | Kd [2] [nM] | IC50 of inhibition of TS activity (remnant activity of 2 ng TS with sialyllactose and [14C]-lactose, increasing amounts of whole 13G9 IgG) [3] [nM] | Kd [4] [nM] |
| --- | --- | --- | --- | --- |
| B1 | 1.6 | – | – | – |
| B2 | – | < 1 | 0.056 | ~0.72 |
